Common to all, as to settings: protein: recombinant; tags: N-terminal His-SUMO, removed by ULP1; label: FAM; single strand
In one data set the target is T1, DDX21 core S375L/A376E (human, UniProt Q9NR30 188-563, S375L;A376E).
T1 sequence: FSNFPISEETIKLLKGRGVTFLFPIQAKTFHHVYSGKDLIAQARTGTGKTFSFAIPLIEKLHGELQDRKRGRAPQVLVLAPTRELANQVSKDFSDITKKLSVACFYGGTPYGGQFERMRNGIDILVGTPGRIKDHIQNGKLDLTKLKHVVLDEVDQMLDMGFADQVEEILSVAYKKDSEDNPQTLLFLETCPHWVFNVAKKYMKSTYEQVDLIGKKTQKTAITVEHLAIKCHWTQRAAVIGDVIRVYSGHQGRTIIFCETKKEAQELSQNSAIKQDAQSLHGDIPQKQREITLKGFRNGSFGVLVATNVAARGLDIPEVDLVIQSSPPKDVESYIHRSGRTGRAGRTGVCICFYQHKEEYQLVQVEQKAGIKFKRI
Put plainly: UV crosslinking; about half of activity; MST: 50 mM Tris pH 7.5, 50 mM KCl, 2 mM MgCl2, 1 mM TCEP, 0.01% NP-40, 0.05 mg/mL BSA, 2 mM AMPPNP, 50 nM FAM-RNA; temperature not given; crosslinking buffer not in material.

In a further data set the target is T2, DDX21 core 3R to A (human, UniProt Q9NR30 188-563, R270A;R318A;R476A).
T2 sequence: T1 sequence with R83A, R131A, L188S, E189A, R289A
Kind of data set: UV crosslinking; reduced by more than half; MST: 50 mM Tris pH 7.5, 50 mM KCl, 2 mM MgCl2, 1 mM TCEP, 0.01% NP-40, 0.05 mg/mL BSA, 2 mM AMPPNP, 50 nM FAM-RNA; temperature not given; crosslinking buffer not in material.

In the next data set the target is T3, DDX21 core 4R to A (human, UniProt Q9NR30 188-563, R255A;R270A;R318A;R476A).
T3 sequence: T1 sequence with R68A, R83A, R131A, L188S, E189A, R289A
The data set is described as above.

In another data set the target is T4, DDX21 core 8A (human, UniProt Q9NR30 188-563, R255A;R270A;T315A;R318A;D321A;Q352A;R476A;T494A).
T4 sequence: T1 sequence with R68A, R83A, T128A, R131A, D134A, Q165A, L188S, E189A, R289A, T307A
Kind of data set: UV crosslinking; comparable to WT; MST: 50 mM Tris pH 7.5, 50 mM KCl, 2 mM MgCl2, 1 mM TCEP, 0.01% NP-40, 0.05 mg/mL BSA, 2 mM AMPPNP, 50 nM FAM-RNA; temperature not given; crosslinking buffer not in material.

The next data set concerns the target T5, DDX21 core 7A (human, UniProt Q9NR30 188-563, R270A;T315A;R318A;D321A;Q352A;R476A;T494A).
T5 sequence: T1 sequence with R83A, T128A, R131A, D134A, Q165A, L188S, E189A, R289A, T307A
The data set is described as above.

The source of these data is PMC7375243, “Structural Basis of Human Helicase DDX21 in RNA Binding, Unwinding, and Antiviral Signal Activation” (Advanced Science, 2020).

Where a chain is given by its changes, count along the chain named.

With UUUUUUUUUUUUUUU (ssRNA) [FAM-U15], the binding signal in the data set with DDX21 core S375L/A376E was ~50 % of WT; in the data set with DDX21 core 3R to A, < 50 % of WT; with DDX21 core 4R to A, < 50 % of WT. Further, the binding result with DDX21 core 8A and with DDX21 core 7A was “binds” in each case.
